Biological target: T1, integrin alpha2b beta3 (UniProt P08514 32-993; P05106 27-718)
T1 construct: also called integrin α2b β3; integrin alpha2 beta3
Test: ELISA on coated integrin alpha2b beta3 (100 ng per well), anti-human Fab-HRP, absorbance 405 nm

EC50 (read off the curve): ~0.8 nM
B1: abciximab (ReoPro) (Fab, V domains shown)
VH: EVQLQQSGTVLARPGASVKMSCEASGYTFTNYWMHWVKQRPGQGLEWIGAIYPGNSDTSYIQKFKGKAKLTAVTSTTSVYMELSSLTNEDSAVYYCTLYDGYYVFAYWGQGTLVTVSA
VL: EIVLTQSPVTLSVTPGDSVSLSCRASRDISNNLHWFQQTSHESPRLLIKYASQSMSGIPSRFSGSGSGTDFTLSINSVETEDFGMYFCQQTNSWPYTFGGGTKLEIK
